According to patent publication US20060292657A1, “Phex substrates and methods using same” (priority 2003, published 2006):

Legend:
Assay in all cases: Kinetic parameters for hydrolysis of internally quenched fluorogenic peptides by secPHEX
Format in all cases: biochemical, human
Details in all cases: other: 37° C., 10 mM Bis-Tris buffer pH 5.5, 150 mM NaCl
[1] = substrate: CC(C)C[C@H](NC(=O)[C@H](Cc1c[nH]cn1)NC(=O)[C@@H](NC(=O)c1ccccc1N)[C@@H](C)O)C(=O)N[C@@H](CC(=O)O)C(=O)N[C@H](C(=O)N[C@@H](CCCCN)C(=O)N[C@@H](CCCCN)C(=O)N[C@@H](CCC(N)=O)C(=O)NCCNc1ccc([N+](=O)[O-])cc1[N+](=O)[O-])[C@@H](C)O
Protocol: (§1) The human recombinant secPHEX was obtained following the procedure previously described (17, WO 00/50580). Purified secPHEX concentration was determined using the Bradford method (DC protein assay kit; Bio-Rad, Mississauga, ON, Canada). Membrane-bound recombinant human PHEX was expressed in LLC-PK1 cells (17, (WO 00/50580)) and membranes were prepared essentially as described by Guo et al. (34). Briefly, transfected cells resuspended in lysis buffer (150 mM NaCl, 20 mM Tris.HCl, pH 7.6) were disrupted by sonication. Cell debris were removed by centrifugation at 300 g for 15 min at 4 °C. Membranes were collected by centrifugation at 30,000 g for 50 min and solubilized for 2h with 1% n-dodecyl-β-D-maltoside in lysis buffer. Insoluble material was pelleted by centrifugation at 10,000 g for 15 min and protein concentrations of the supernatant determined using the Bradford method described above. PHEX amounts were evaluated by immunoblotting as described previously (17). NEP expression and purification were performed as described previously (36).
(§2) The hydrolysis of the IQFPs, at 37° C., in 10 mM Bit-Tris buffer pH 5.5 (0.35 to 1.0 ml final volume) containing 150 mM NaCl, was continuously followed measuring the fluorescence at γem=420 nm and γex=320 nm in a Hitachi F-2000™ spectrofluorometer. The cuvefte containing the buffer and the substrate was placed in a thermostatically controlled cell compartment for 5 min before the addition of the enzyme and the increase in fluorescence with time was continuously recorded for 5-10 min. The enzyme concentration for initial rate determination was chosen at a level intended to hydrolyze less than 5% of the substrate present. The slope was converted into micromoles of substrate hydrolyzed per min based on a calibration curve obtained from complete hydrolysis of each peptide. The inner-filter effect was corrected using an empirical equation as previously described (43). The kinetic parameters Km and kcat were calculated by the non-linear regression data analysis Grafit program (42). The kcat/Km values were calculated as the ratio of these two determined parameters. The apparent second order rate constant kcat/Km (*kIt/Km) was determined under pseudo first-order conditions, where [S]<<Km. These determinations were performed in two different substrate concentrations and the errors were less than 5% for any obtained value.
(§3) To determine the position of cleavage in peptides of the IQFPs combinatorial libraries, the products resulting from hydrolysis by secPHEX were submitted to N-terminal amino acid sequencing in a PPSQ-23protein sequencer (Shimadzu Tokyo, Japan). The scissile bonds in the IQFPs secPHEX substrates derived from PTHrP107-139, FGF-23and MEPE were determined by amino acid sequencing and by MALDI-TOF™ mass spectrometry (TofSpec-E™, Micromass, Manchester, U.K.) after isolation of the fragments resulting from the hydrolysis by secPHEX by analytical HPLC.
(§4) The assays were performed at 37° C., in 10 mM Bis-Tris buffer pH 5.5, containing 150 mM NaCl. Measurements were made as described under the heading “Experimental Procedures” above. Cleavage sites are indicated as arrows (↓). The standard deviations of the kinetic constants were less than 5%.
(§5) The assays were performed at 37° C., in 10 mM Bis-Tris buffer pH 5.5, containing 150 mM NaCl. Measurements were made as described under the heading “Experimental Procedures” above. Cleavage sites are indicated by arrows (↓). The standard deviations of the kinetic constants were less than 5%.
(§6) The assays were. performed at 37° C., in 10 mM Bis-Tris buffer pH 5.5, containing 150 mM NaCl. Measurements were made as described under the heading “Experimental Procedures” above. Cleavage sites are indicated by arrows (↓). The standard deviations of the kinetic constants were less than 5%.
(§7) The assays were performed at 37° C., in 10 mM Bis-Tris buffer pH 5.5, containing 150 mM NaCl. Measurements were made as described under “Experimental Procedures”. […]

[2] = substrate: CC[C@H](C)[C@H](NC(=O)[C@H](CCC(=O)O)NC(=O)[C@H](CC(N)=O)NC(=O)[C@H](CC(=O)O)NC(=O)[C@H](CC(C)C)NC(=O)CNC(=O)[C@H](CCCNC(=N)N)NC(=O)c1ccccc1N)C(=O)N[C@@H](CCC(N)=O)C(=O)NCCNc1ccc([N+](=O)[O-])cc1[N+](=O)[O-]
Protocol: as §1, §2, §3, §4, §5, §6, §7

[3] = substrate: CC(C)[C@H](NC(=O)[C@H](CC(=O)O)NC(=O)[C@H](Cc1ccc(O)cc1)NC(=O)CNC(=O)[C@H](CC(N)=O)NC(=O)c1ccccc1N)C(=O)N[C@@H](Cc1ccc(O)cc1)C(=O)N[C@@H](Cc1c[nH]cn1)C(=O)N[C@@H](CCC(N)=O)C(=O)NCCNc1ccc([N+](=O)[O-])cc1[N+](=O)[O-]
Protocol: as §1, §2, §3, §4, §5, §6, §7

[4] = substrate: C[C@H](NC(=O)[C@H](C)NC(=O)[C@H](CC(=O)O)NC(=O)[C@H](CO)NC(=O)[C@H](CO)NC(=O)CNC(=O)c1ccccc1N)C(=O)N[C@@H](CCC(=O)O)C(=O)N[C@@H](CCC(N)=O)C(=O)NCCNc1ccc([N+](=O)[O-])cc1[N+](=O)[O-]
Protocol: as §1, §2, §3, §4, §5, §6, §7

[5] = substrate: CSCC[C@H](NC(=O)[C@H](CCC(=O)O)NC(=O)[C@H](CC(N)=O)NC(=O)c1ccccc1N)C(=O)N[C@@H](CC(=O)O)C(=O)N[C@@H](CO)C(=O)N[C@@H](Cc1ccccc1)C(=O)N[C@@H](CC(N)=O)C(=O)N[C@@H](CCC(N)=O)C(=O)NCCNc1ccc([N+](=O)[O-])cc1[N+](=O)[O-]
Protocol: as §1, §2, §3, §4, §5, §6, §7

B1: human recombinant secPHEX (Homo sapiens) (protein)
chain: SLQAKQEYCLKPECIEAAAAILSKVNLSVDPCDNFFRFACDGWISNNPIPEDMPSYGVYPWLRHNVDLKLKELLEKSISRRRDTEAIQKAKILYSSCMNEKAIEKADAKPLLHILRHSPFRWPVLESNIGPEGVWSERKFSLLQTLATFRGQYSNSVFIRLYVSPDDKASNEHILKLDQATLSLAVREDYLDNSTEAKSYRDALYKFMVDTAVLLGANSSRAEHDMKSVLRLEIKIAEIMIPHENRTSEAMYNKMNISELSAMIPQFDWLGYIKKVIDTRLYPHLKDISPSENVVVRVPQYFKDLFRILGSERKKTIANYLVWRMVYSRIPNLSRRFQYRWLEFSRVIQGTTTLLPQWDKCVNFIESALPYVVGKMFVDVYFQEDKKEMMEELVEGVRWAFIDMLEKENEWMDAGTKRKAKEKARAVLAKVGYPEFIMNDTHVNEDLKAIKFSEADYFGNVLQTRKYLAQSDFFWLRKAVPKTEWFTNPTTVNAFYSASTNQIRFPAGELQKPFFWGTEYPRSLSYGAIGVIVGHEFTHGFDNNGRKYDKNGNLDPWWSTESEEKFKEKTKCMINQYSNYYWKKAGLNVKGKRTLGENIADNGGLREAFRAYRKWINDRRQGLEEPLLPGITFTNNQLFFLSYAHVRCNSYRPEAAREQVQIGAHSPPQFRVNGAISNFEEFQKAFNCPPNSTMNRGMDSCRLW
notes: pure soluble form of PHEX (secPHEX); made in house
B1 showed a Km [1] of 15.0 µM, a kcat [1] of 0.02 s⁻¹ and a kcat/Km [1] of 1300 M⁻¹ s⁻¹. For the same protein, the Km [2] was 7.0 µM, the kcat [2] was 0.03 s⁻¹ and the kcat/Km [2] was 4300 M⁻¹ s⁻¹. It also gave a Km [3] of 9.0 µM, a kcat [3] of 0.01 s⁻¹ and a kcat/Km [3] of 1100 M⁻¹ s⁻¹. For the same protein, the Km [4] was 2.4 µM, the kcat [4] was 0.3 s⁻¹ and the kcat/Km [4] was 125000 M⁻¹ s⁻¹. The Km [5] was 38.0 µM, the kcat [5] was 0.3 s⁻¹ and the kcat/Km [5] was 7900 M⁻¹ s⁻¹.
